Target: Mycobacterium tuberculosis RsdA^1-94 (Mycobacterium tuberculosis, UniProt P9WJ71 1-94)
Assay: SPR

Mycobacterium tuberculosis RsdA^1-94, sequence (P9WJ71 1-94): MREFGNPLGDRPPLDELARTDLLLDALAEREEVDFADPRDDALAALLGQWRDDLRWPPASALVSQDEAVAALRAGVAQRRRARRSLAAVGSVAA

B1: -35 promoter binding domain of Mycobacterium tuberculosis σ^D (σ^D4), residues 141-212 (domain or fragment)
chain: MAIEADSVTRMNELLEILPAKQREILILRVVVGLSAEETAAAVGSTTGAVRVAQHRALQRLKDEIVAAGDYA
Work on B1 yielded a Kd of 10.3 ± 3.5 µM.
